Assay results published in US20260115250A1, “METHODS OF TREATING AGE-RELATED MACULAR DEGENERATION” (Character Biosciences, Inc., priority 2022, published 2026).

Tests used:
[1] = DMPC solubility assay, 0.5 mM DMPC (turbidity reduction); assay type: biochemical; conditions: FIGS. 2A-2D and 3A-3C
Experimental: In this example, peptide stocks were diluted to 200 μM in H2O (a 2× solution) and 50 μL of peptide solution was transferred in triplicate into 96-well plates. A one mM solution of 1,2-dimyristoyl-sn-glycero-3-phosphocholine (DMPC) in H2O was prepared, and using a multichannel pipet, 50 μL DMPC solution was rapidly added to the plate. Peptide and lipid solutions were incubated at room temperature for 15 minutes with a final concentration of 100 μM peptides and 0.5 mM DMPC. After 15 minutes, absorbance was read on a plate reader at 405 nm. […] Data are presented as mean+SD over two runs.
In these experiments, DMPC solubility titration curves were generated. Peptide stocks were diluted to 200 μM in H2O (a 2× solution) and serially diluted in H2O over 4 concentrations, then 50 μL of peptide solutions were distributed in triplicate into 96-well plates. A 1 mM solution of 1,2-dimyristoyl-sn-glycero-3-phosphocholine (DMPC) in H2O was prepared, and using a multichannel pipet, 50 μL DMPC solution was rapidly added to the plate. Peptide and lipid solutions were incubated at room temperature for 15 minutes with final concentrations of 3.16-100 μM peptides and 0.5 mM DMPC. After 15 minutes, absorbance was read on a plate reader at 405 nm. […] Data are presented as mean+SD over two runs. Non-linear regression was used to calculate EC50 values.

ARPE-19 cells = test: ARPE-19 GAG-dependent cholesterol import (with or without heparin); assay type: cell-based, human; conditions: ARPE-19, 10 μM peptide
Experimental: ARPE-19 cells were seeded on 96-well plates at 25,000 cells per well and grown to confluence. A 2× solution of 500 μM DMPC and 50 μM BODIPY-Cholesterol with or without 100 µg/mL heparin was prepared in serum free DMEM: F12. Peptides were diluted to 20 μM in serum free DMEM: F12 (a 2× solution). Peptides were added to lipid solution in equal parts (60 μL each) and incubated for 1 hour at 37° C. ARPE-19 cells were serum starved in serum free DMEM: F12 for 1 hour at 37° C. Peptide: Lipid complexes (100 μL total volume per well) were transferred to ARPE-19 cells for 2 hours at 37° C. Cells were washed, fixed, and intracellular fluorescence was read on Promega GloMax at 475 nm excitation, 500-550 emission. Fluorescence values were background corrected from no treatment conditions. Data are presented ±SD for 2 runs.

LDLR = LDLR (Homo sapiens, UniProt P01130); test: lipid-dependent LDLR binding (SPR), single concentration; conditions: 1 μM peptide with or without 25 μM DMPC
LDLR, sequence (P01130 22-860): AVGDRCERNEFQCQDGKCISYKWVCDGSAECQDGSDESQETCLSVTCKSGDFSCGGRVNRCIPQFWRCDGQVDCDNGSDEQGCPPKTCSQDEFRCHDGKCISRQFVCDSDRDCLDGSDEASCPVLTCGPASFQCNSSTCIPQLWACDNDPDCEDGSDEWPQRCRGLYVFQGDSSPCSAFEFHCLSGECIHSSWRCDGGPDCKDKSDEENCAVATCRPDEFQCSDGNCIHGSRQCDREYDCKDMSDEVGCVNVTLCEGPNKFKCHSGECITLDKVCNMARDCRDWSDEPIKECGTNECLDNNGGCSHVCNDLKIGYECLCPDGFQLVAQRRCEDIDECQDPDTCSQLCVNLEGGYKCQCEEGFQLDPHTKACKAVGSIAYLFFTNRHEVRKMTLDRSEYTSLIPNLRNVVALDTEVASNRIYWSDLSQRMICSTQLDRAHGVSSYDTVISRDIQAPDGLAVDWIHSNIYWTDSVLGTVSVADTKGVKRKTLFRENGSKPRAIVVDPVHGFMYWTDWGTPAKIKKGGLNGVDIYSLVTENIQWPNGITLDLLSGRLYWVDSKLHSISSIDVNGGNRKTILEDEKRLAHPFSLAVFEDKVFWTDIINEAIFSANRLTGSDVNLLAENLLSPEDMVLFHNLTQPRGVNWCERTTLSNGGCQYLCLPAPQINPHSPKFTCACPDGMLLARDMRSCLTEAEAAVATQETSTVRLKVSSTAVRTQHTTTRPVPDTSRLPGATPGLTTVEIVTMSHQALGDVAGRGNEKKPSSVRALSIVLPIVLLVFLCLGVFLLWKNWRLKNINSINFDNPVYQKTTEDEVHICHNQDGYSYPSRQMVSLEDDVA
Experimental: Peptides were diluted in 1×HBS-N buffer with 1 mM CaCl2 to a final concentration of 1 μM and incubated with or without 25 μM DMPC for 1 hour at RT to form lipid complexes. Each peptide was tested in duplicate. LDLR was diluted to 10 μg/mL in 10 mM acetate buffer pH 4.5 and was immobilized (˜400RU) on a CM5 chip via amine coupling utilizing 1×HBS-P+ buffer with 1 mM CaCl2. Test peptides (with or without DMPC) were exposed to immobilized LDLR at a flow rate of […] for 120 seconds in HBS-N with 1 mM CaCl2. Between cycles the surface was regenerated with 3, 30 second injections of 10 mM NaOH and 100 mM EDTA. Data are plotted as max RU values, averaged from three separate runs.

[2] = peptide binding to non-oxidized and oxidized lipids (SPR); conditions: immobilized peptide; RU normalized to DMPC
Experimental: FIGS. 25A-25O show peptide binding activity to non-oxidized and oxidized lipids via SPR for indicated peptides. Peptides were reconstituted to 50 μg/mL in 10 mM acetate buffer, pH 4.5 and immobilized to ˜200 RU on a CM5 chip via amine coupling. Non-oxidized lipids (DMPC & POPC) and oxidized lipids (POVPC & KOdiA-PC) were diluted to 100 µM in HBS-EP running buffer and exposed to the chip for binding (n=3) at a flow rate of […] for 120 seconds. The surface was regenerated with 20% EtOH. T-001 served as a positive control and T-031 served as a negative control on each chip. For each peptide, the RU response for all lipids was normalized to the DMPC RU values.

B1: T-013: therapeutic peptide (peptide)
chain: TRARLSKELQAAQARLGADMEDVRGRLVQYRGEVQAMLGQSTEELRVRLASHLRKLRKRLLRDADDLQKRLAVYQA
DMPC solubilizing activity [1]: significant activity
GAG dependence of cholesterol import (ARPE-19 cells): rely on GAG binding for cholesterol import activity
lipid-dependent LDLR binding (RU with lipid vs peptide alone) (LDLR): lipid-dependent LDLR binding activity
binding to oxidized lipids relative to DMPC [2]: binding to at least one oxidized lipid that was equivalent or improved to binding against DMPC
